Experiment [1] has as its target AM receptor (AM-R) on human tumor cell lines (human). Kind of experiment: receptor binding on MCF-7 cells.
Experiment [2] shares this target. Kind of experiment: 125I-AM (0.2 nM per 5×10^5 cells) binding to NCI-H1264 cells.
Experiment [3] has the same target. Kind of experiment: displacement of 125I-AM from MCF-7 cells by unlabelled AM. On the technique in general: In a radioligand displacement assay an active substance lowers the binding of a labelled ligand.
Experiment [4] shares this target. Kind of experiment: cell-based or functional assay.

Ends that are not written are not given here.

What is called Kd is a measure of binding affinity in units of concentration. Read a high Kd as weaker binding. For orientation: IC50 means the concentration at which inhibition is half-maximal. A low value points to greater potency.

B1: adrenomedullin (AM) (peptide, UniProt P35318 95-146, looked up)
peptide: YRQSMNNFQGLRSFGCRFGTCTVQKLAHQIYQFTDKDKDNVAPRSKISPQGY-NH2
modifications: ends and bridges not checked; also: 125I-labelled as tracer in receptor assays
In the case of B1, the Kd in experiment [1] is 2 nM. For the same molecule, in experiment [2], the radioactivity bound (cpm) was 2260 cpm. Moreover, the IC50 in experiment [3] came to 10 nM. Besides, in experiment [4], the increase in cellular cAMP (ED50) was determined as 5 nM and the maximum elevation of cellular cAMP (fold of control) came out at 3.

The record behind these values is US20020055615A1.
